# Biological target: MHC class I allele A*0201 (A2) (Homo sapiens, UniProt P04439, D140Y/D185E/D98H/E176V/E277Q/G131W/G231S/I119V/I121R/I166T/I218V/L300P/L318F/N151K/N90K/P208A/P217A/Q86G/Q94H/R138H/R169H/T345S)
# Test: iTopia peptide binding assay, A*0201
# Conditions: percent of positive control peptide binding; peptide at 1.11×10^−5M
# Method in brief: (§1)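 iTopia plates coated with the respective MHC class I allele; 9-mer peptides bound at 1.11×10^−5M under standardized optimal conditions alongside an allele-specific control peptide at the same concentration. Total fluorescence read after antibody removal, in duplicate; binding given as percent of positive control peptide binding.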
row,Sequence,"Peptide binding, MHC Class I Molecule A*0201"
1,SAQPPLPDQ [Peptide 27],13 % of control
2,SEAARTVKC [Peptide 35],1 % of control
3,SFRNLTHLE [Peptide 127],1 % of control
4,SGSNASVSA [Peptide 82],15 % of control
5,SLRQLDLSH [Peptide 72],6 % of control
6,SSSPTSSAS [Peptide 16],7 % of control
7,TDLPAYVRN [Peptide 44],3 % of control
8,TEVPTDLPA [Peptide 42],7 % of control
9,VKCVNRNLT [Peptide 38],3 % of control
10,VQGKDRLTC [Peptide 158],4 % of control
11,VRNLFLTGN [Peptide 47],5 % of control
12,VSAPSPLVE [Peptide 85],13 % of control
13,VSSSSPTSS [Peptide 15],9 % of control
14,VVAALLAGR [Peptide 100],11 % of control
15,YHYRYEINA [Peptide 200],7 % of control
16,YRYEINADP [Peptide 201],0 % of control

# Biological target: MHC class I allele B*0702 (B7) (Homo sapiens, UniProt P01889)
# Test: iTopia peptide binding assay, B*0702
# Conditions: percent of positive control peptide binding; peptide at 1.11×10^−5M
# Method in brief: as §1
row,Sequence,"Peptide binding, MHC Class I Molecule B*0702"
1,SAQPPLPDQ [Peptide 27],3 % of control
2,SEAARTVKC [Peptide 35],0 % of control
3,SFRNLTHLE [Peptide 127],0 % of control
4,SGSNASVSA [Peptide 82],11 % of control
5,SLRQLDLSH [Peptide 72],13 % of control
6,SSSPTSSAS [Peptide 16],8 % of control
7,TDLPAYVRN [Peptide 44],2 % of control
8,TEVPTDLPA [Peptide 42],0 % of control
9,VKCVNRNLT [Peptide 38],2 % of control
10,VQGKDRLTC [Peptide 158],6 % of control
11,VRNLFLTGN [Peptide 47],3 % of control
12,VSAPSPLVE [Peptide 85],3 % of control
13,VSSSSPTSS [Peptide 15],2 % of control
14,VVAALLAGR [Peptide 100],7 % of control
15,YHYRYEINA [Peptide 200],5 % of control
16,YRYEINADP [Peptide 201],3 % of control

# Biological target: MHC class I allele A*0101 (A1) (Homo sapiens, UniProt P04439, A114D/A174V/A182V/D101N/D185E/E176A/E190D/L180R/Q94H/R68K/S129P/T187R/V100A/V91M/W191G)
# Test: iTopia peptide binding assay, A*0101
# Conditions: percent of positive control peptide binding; peptide at 1.11×10^−5M
# Method in brief: as §1
row,Sequence,"Peptide binding, MHC Class I Molecule A*0101"
1,SAQPPLPDQ [Peptide 27],2 % of control
2,SEAARTVKC [Peptide 35],5 % of control
3,SFRNLTHLE [Peptide 127],1 % of control
4,SGSNASVSA [Peptide 82],5 % of control
5,SLRQLDLSH [Peptide 72],0 % of control
6,SSSPTSSAS [Peptide 16],4 % of control
7,TDLPAYVRN [Peptide 44],7 % of control
8,TEVPTDLPA [Peptide 42],3 % of control
9,VKCVNRNLT [Peptide 38],6 % of control
10,VQGKDRLTC [Peptide 158],0 % of control
11,VRNLFLTGN [Peptide 47],0 % of control
12,VSAPSPLVE [Peptide 85],3 % of control
13,VSSSSPTSS [Peptide 15],3 % of control
14,VVAALLAGR [Peptide 100],9 % of control
15,YHYRYEINA [Peptide 200],0 % of control
16,YRYEINADP [Peptide 201],0 % of control

# Biological target: MHC class I allele A*0301 (A3) (Homo sapiens, UniProt P04439)
# Test: iTopia peptide binding assay, A*0301
# Conditions: percent of positive control peptide binding; peptide at 1.11×10^−5M
# Method in brief: as §1
row,Sequence,"Peptide binding, MHC Class I Molecule A*0301"
1,SAQPPLPDQ [Peptide 27],0 % of control
2,SEAARTVKC [Peptide 35],0 % of control
3,SFRNLTHLE [Peptide 127],1 % of control
4,SGSNASVSA [Peptide 82],3 % of control
5,SLRQLDLSH [Peptide 72],11 % of control
6,SSSPTSSAS [Peptide 16],2 % of control
7,TDLPAYVRN [Peptide 44],1 % of control
8,TEVPTDLPA [Peptide 42],0 % of control
9,VKCVNRNLT [Peptide 38],0 % of control
10,VQGKDRLTC [Peptide 158],6 % of control
11,VRNLFLTGN [Peptide 47],0 % of control
12,VSAPSPLVE [Peptide 85],7 % of control
13,VSSSSPTSS [Peptide 15],2 % of control
14,VVAALLAGR [Peptide 100],49 % of control
15,YHYRYEINA [Peptide 200],1 % of control
16,YRYEINADP [Peptide 201],1 % of control

# System: PBMCs recovered from patients treated with TroVax
# Test: IFNγ ELISPOT with PBMCs from TroVax treated patients
# Type: cell-based, human
# Conditions: 10 mer vs 9 mer experiment, absence of A2 blocking antibody, FIG. 14
row,Sequence,IFNγ ELISPOT response
1,ARLALVLLGW [10 mer peptide 10],no response
2,FLTGNQLAVL [10 mer peptide 49],response
3,MPGGCSRGPA [10 mer peptide 1],no response
4,NLFLTGNQLA [10 mer peptide 48],no response
5,NLTEVPTDLP [10 mer peptide 41],no response
6,RLARLALVLL [10 mer peptide 9],response
7,RLRLARLALV [10 mer peptide 8],response
8,TGNQLAVLPA [10 mer peptide 50],no response

# Same assay, conditions: PBMCs of patient TV2-018, X+6 wk and X+10 wk, FIG. 11-13
row,Sequence,IFNγ ELISPOT response
1,FLTGNQLAVL [10 mer peptide 49],capable of inducing an ex-vivo IFNγ response
2,NIRDACRDHM [10 mer peptide 194],capable of inducing an ex-vivo IFNγ response
3,RLARLALVLL [10 mer peptide 9],capable of inducing an ex-vivo IFNγ response
4,RLRLARLALV [10 mer peptide 8],capable of inducing an ex-vivo IFNγ response

# Same assay, conditions: presence of A2 blocking antibody
row,Sequence,IFNγ ELISPOT response with A2 blocking antibody (clone BB7.2) / A2 restriction
1,FLTGNQLAVL [10 mer peptide 49],A2 restricted
2,RLARLALVLL [10 mer peptide 9],A2 restricted

# Source: US8147838B2, “Peptide” (priority 2005, dated 2012)
